This data set deals with the molecule itself. As to the kind of experiment: SAXS; P1 in solution, 20 mM Tris pH 7.5, 150 mM NaCl, 15°C, flow mode, SWING beamline; contrast series with Gd-HPDO3A (up to 1341 mM) or iohexol (up to 618 mM); CRYSOL fits with a hexameric atomic model, linearity of I(0)^1/2, Rg.

B1: protease 1 from Pyrococcus horikoshii (enzyme)
chain: MKVLFLTANEFEDVELIYPYHRLKEEGHEVYIASFERGTITGKHGYSVKVDLTFDKVNPEEFDALVLPGGRAPERVRLNEKAVSIARKMFSEGKPVASICHGPQILISAGVLRGRKGTSYPGIKDDMINAGVEWVDAEVVVDGNWVSSRVPADLYAWMREFVKLLK
notes: protease 1 (P1) from Pyrococcus horikoshii; Hexamer; also called P1; source: purified following existing protocols (Engilberge et al., 2017)
For the protein B1, the “stoichiometry N” value came to 6.

The record behind these values is publication PMC9435597, “Medical contrast agents as promising tools for biomacromolecular SAXS experiments” (Acta Crystallographica. Section D, Structural Biology, 2022).
